Laboratory results: the RNAGym collection of RNA variant scans (doi:10.1073/pnas.2313332121)

B1: TPR t1 (parent)
chain: GACCAAUCUGCCCUCAGAGCUCGAGAACAUCUUCGGAUGCAGAGGAGGCAGGCUUCGGUGGCGCGAUAGCGCCAACGUCCUCAACCUCCAAUGCAUCCCACCACAUGAUGAUGCCUGAAGAGCCUUGGUUUUUUG

Variants of: B1
Assay: polymerase ribozyme fitness, log enrichment relative to wild type (log ratio); higher = more active; in vitro selection for triplet polymerase activity
In short: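 Input and output libraries were sequenced on Illumina after a single in vitro selection round, run in triplicate on PCR-built, transcribed mutant libraries of each subunit of a heterodimeric triplet polymerase ribozyme. Selection annealed libraries to a biotinylated primer, the partner subunit and triplets, incubated them frozen at −7 °C, then gel-excised extended constructs for streptavidin-bead capture and RT-PCR. Genotypes with ≥10 input reads and ≥1 read per output were kept. Fitness is the logarithm, taken in base 2, of genotype enrichment divided by wild-type enrichment, using inverse-variance-weighted replicate averages.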

Variant | polymerase ribozyme fitness (log ratio)
C13A G44C C56U C124A | 0.969
C12G C89A | -1.41
C12U G44C C82G A103G G117C | -6.32
C13A C28G C49A A75U A103G G107U U112C | -6.59
C12G G47C A66U A90C G120C U129A | -6.06
C12U C15U G45U G69C C82A C101U | -2.95
C12G C85G | -1.08
C12G C28U C53A | -2.29
C13G A83C A121G | 1.65
C12U G69A | -2
C12U A37U G63A C85U G93C G120A | -0.961
C12U A50G G71U U130C | 0.0947
C13A C40A | -2.4
C12U U21A C62G C104U | -2.05
C12G C115G | -2.46
C12U C64U | 0.0316
C12U C64A | -5.62
C13G C53A | -1.86
C12U C13U A50U U78G U131C | -0.743
C13A C62U C89A | -3.31
C12U G65U | -4.93
C13A G61A C82U C124U | -0.178
C13A U32C A100C | -2.75
C12G G19U C72U | -6.54

Variant | polymerase ribozyme fitness (log ratio)
C12U C85G | -0.35
C12G G71C U96A A108G C123G | -4.58
C12U G61U A105U | -1.42
C13G C15A U106A C123A | -1.05
C13A G36A C72U A121C G127U | -0.199
C12G C15G G45A C49G C85U C124U | -2.82
C13A G23U G61C C88U C98G U112A G113A | -5.88
C12U C72A C80U | -0.362
C13G A66U | -2.18
C12U A18G G63C C88G A90C C114A G122A | -5.09
C12G C31U C49U G51U C70U C101A U109G | -6.92
C13A C72G C94A C124A | 0.278
C12G G35A G48U G57U C80U | -4.47
C12U G19A G45U | -2.71
C13G A119U | 0.114
C13G A43U C101U | -3.57
C13A A119U | 0.145
C13A G61U A91U | -2.53
C13A C104U A118C C124A | -0.374
C12G G44A G48U A103G U112A C115A | -6.92
C13A C53A C115U A119U | 0.949
C13A A75U U125A | -2.12
C12U G51A G71C C79U C101A | -5.68
C12G G19C | -1.64

Variant | polymerase ribozyme fitness (log ratio)
C12G U30C A41U G48A | -5.05
C12U C70U C97A | -5.44
C13G A26C C40U C79U C85U G120C | -6.15
C12G C88A | 0.489
C13A G57C C85G C123U | -1.45
C12U U130G | 0.00659
C12G U14G G107U C114U G120U C123U U133A | -4.14
C12U C80G G128C U130C | -4.44
C12U G47A C79U U87C | 0.112
C13A C56G C89A A90U | -3.98
C12U C70U G71A | -0.916
C12U C53G A90C | -1.61
C12U C13A A27G G93A | -5.78
C12U A27C | -2.1
C12U G19U A90C | -2.37
C13A U112A | -0.401
C12U C15U G17A C64U A83C C85A G117U | -2.73
C12U C99A | -3.9
C12U U38G G63U | -1.77
C13G A50G G51C G57U A74U | -3.43
C12U G19C C56U U81G C104A G117C | -5.9
C12G G69U U81G A90U G127U | -4.07
C12U G47C G69U G107A | -4.81
C13A A50U C72A | -3.71

Variant | polymerase ribozyme fitness (log ratio)
C12G C123G | 1.55
C13G C22A G45U G77A A111U | -6.13
C13A C70G C123A | -2.2
C13G C56A A74G C101G U112C U130A | -3.67
C12G C72U A100C | -1.28
C12U C72U | -0.537
C12U C72G | 0.149
C12U C73U | 0.0527
C12U C73A | 0.441
C12U A26U G93U | -3.6
C12U U112C | 1.26
C13A C62A G120U | -1.17
C12G G47A G48C A68G A103G A105C U106A G117U G120C | -7.36
C12U G61U U109G G120U | -4.29
C13G C40A G63C G117U U133G | -6.59
C12U G19U A43U C64G A95C G117U | -7.83
C12U A29G G71U G128A | -3.03
C12U C40G | -0.0831
C12G G61U G107U | -4.66
C12U G48A U54G A121U U129G | 0.00313
C12U G135U | 0.000607
C13A C20U G42U G44A C102U G127C | -6.04
C13G A50U G61U | -3.51
C12U U55C G71A A90G G113U | -2.97

Variant | polymerase ribozyme fitness (log ratio)
C12G C20A C49A | -2.49
C12U C70U U129C | -0.46
C12U G17C C97G C115G | -3.25
C12G A108G | -1.2
C12U G63U U78A C79U | 0.0353
C13A C62G | -2.67
C12G G48C C49A U55C G61A A95G G110A | -2.17
C12U C70U C80A C97U A121G U133A | -3.61
C12U G42U C70U U81C G120U | -1.9
C12G C40A | -1.14
C13G C15A A18C C79U G120U | -2.11
C12U G57C | 0.562
C12U A18C | -1.45
C13A G120A | -0.19
C12G G36U C56U A121U G122U | 0.307
C12U A50U C73U U125A | -0.873
C12U G52A G63C U112A G120A | -0.326
C13A G61A A66U A121U U129G | -0.637
C12U C13U C79G | -1.13
C12G G52A C88U G120U | 1.84
C13G C62G G117C | -8.19
C12G C98U A119G | 0.523
C12U G61U C88A | -0.482
C12G A74U | -0.266

Variant | polymerase ribozyme fitness (log ratio)
C13A G60U A91U G120A | -2.31
C12U U78C G110U | -1.38
C12U C31G | -5.12
C12U G45U G77C | -0.677
C12G C62U | 0.0184
C12U A121C | 2.05
C13G A26U G47A C82U | -5.11
C13A C20U C72U | -2.59
C12G C13A C56U C124A U132C | 0.686
C13A G36C G60U A66U A95C | -6.15
C12U C13U C89U U133G | -0.318
C12G C72A | -0.123
C12U G17U C28U G39A G42C C56U C70G U106A U109C U112C | -6.21
C13A C70A | -3.18
C13A G23A A66G G69A U78C C85U A90U U96G C123U | -6.29
C12U C49G C97A A111U | -5.43
C13G C34G | -5.23
C12U C62A C73U G77U | -3.65
C12U G44U G110A | -2.1
C12U A46C G52U | -0.969
C12U C56U | 0.248
C13A G19A G52C C76G A118U C124A U133A | -4.56
C13A G39C G120A | -0.0336
C12G C53A G71U G107C U112C | -4.39

Variant | polymerase ribozyme fitness (log ratio)
C13A G42A G77U U131C | -3.87
C12U C20U C22A G45U C70U A83U A118U | -6.7
C12U C56A G63U C89U C124A | -4.63
C13G A37G A41C A121U | -0.739
C12U G35A C62U G117A | -6.59
C13A G47A | -2.5
C12U G71A C94U | -1.26
C12U A43U | -1.51
C13G A41C C97A C115A G128A | -7.05
C12U C53U C80G C82U A90G | -2.24
C12G C73A A74G C89A A111G G127U | -5.44
C13A G17C | -4.33
C13A G39C U59G C104U | -1.47
C12G G51C | -3.21
C13A A37C A118U | -1.38
C13A A43C G44A C72U C76U U126A | -5.92
C12G G58U A90U A105U | -4.19
C12G U59G G60U A95U G110C | -5.19
C12U C22G U38A C79U G122A | -3.65
C12G U55A U87A | 0.0839
C12U U14A C40A A105C | -3.92
C12U A16U G63C A105C C124G | -2.25
C12G C80U | 0.429
